Data from patent US20230053258.

Target: recombinant human insulin (UniProt P01308)
Sequence (P01308 whole entry, looked up): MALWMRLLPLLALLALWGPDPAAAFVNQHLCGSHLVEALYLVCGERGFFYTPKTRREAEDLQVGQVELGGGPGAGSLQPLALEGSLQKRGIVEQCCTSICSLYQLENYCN

recombinant human IDE, inactive mutant E111Q
insulin degradation (residual insulin by ELISA): the mutated IDE degraded only 15% of the insulin under the same conditions

recombinant human wild type insulin degrading enzyme (WT rhIDE)
insulin degradation (residual insulin by ELISA): ~60% degradation following 2 hours at 37 °C
